What all share (format): physicochemical
A short description of data set [1]: Dissolution test of peptide sample (pH raised stepwise until dissolved). As to the method:
For example, a simple dissolution test can be used to evaluate the solubility characteristics of a peptide sample. The test is conveniently carried out at a temperature in the range of from about 20° C. to about 27° C., preferably about 25° C. From about 0.1 to about 0.3 grams of peptide is combined with about 1 to about 3 ml of an aqueous medium. The medium may be deionized water. In the case of T-20 or T-1249, these peptides are mildly acetic. Consequently, the medium optionally may include some initial amount base, e.g., about 17 mM Na2CO3 or the like, to provide a suitable initial pH. […] The mixture is rapidly stirred for 5 to 10 minutes between additional increments. Solids adhering to the sides of the testing vessel should be re-suspended. Rapid mixing should be maintained throughout. Results include observations regarding the clarity of the mixture, time required for dissolution, concentration and amount of caustic used, final pH upon dissolution (if this occurs below pH 9), and the like.
For purposes of the invention, peptides such as T-20, T-1249, and GLP-1, as well as counterparts of these, may be deemed to be in a more desired, deaggregated form if dissolution in accordance with this test occurs at a pH of less than about 8, preferably less than about 7.5. If dissolution occurs at a pH of greater than about 7.5, more preferably greater than about 8, the peptide is deemed to be in a less desired aggregated form. This helps to ensure the practicality of handling the peptide during subsequent processing and handling.

Data set [2] is described as follows: Molar mass by MALS light scattering (apparent MW as measure of aggregation). As to conditions: solution sample taken during acid addition at pH 9.3, re-work of Sample A. From the text: Molecular weight analysis is also a useful technique to assess beta sheet structure in a peptide. Depending upon the technique and equipment used, the molecular weight may be the weight average molecular weight, number average molecular weight, actual molecular weight, or average molecular weight. Assessment of average molecular weight or weight average molecular weight are preferred. A peptide formed from a known sequence and number of amino acids generally has a theoretical molecular weight that is known with a fair degree of certainty. The theoretical molecular weight can be calculated from the theoretical peptide structure. The molecular weight of a peptide sample can be determined through any suitable technique such as light scattering analysis. However, the amount of beta sheet structure of a sample impacts its measured molecular weight. Generally, the measured molecular weight tends to be higher with increasing amounts of beta sheet structure being present.
As an example, the T-1249 peptide has a theoretical molecular weight of about 5000. The measured, apparent molecular weight of actual samples of the peptide may range from 6000 to 100,000 or even more. […]
Sample A was a portion of a highly aggregated batch of T-1249 peptide having an average molecular weight of 98,890±6660. The molar mass was determined using MALS light scattering. […]

A short description of data set [3]: Congo Red colorimetric analysis of beta sheet aggregation. Particulars: aggregated T-1249 peptide added to initially orange red solution. As to the method:
The following procedure is used to prepare a Congo Red solution suitable for assessing, qualitatively and/or quantitatively, via colorimetric analysis the solubility and formulating characteristics of a peptide sample. A 50 mM solution of sodium phosphate buffer, pH 7.2 is prepared and filtered through a 0.22 μm Polyethersulfone membrane. 25 μM of Congo Red is dissolved in the sodium phosphate buffer with sonication. The mixture also included about 1% by volume ethanol (This can be 95% ethanol or absolute ethanol.) The solution is orange-colored.
Sonication is used until the peptide is dissolved
The peptide/Congo Red solution is incubated at ambient temperature for 3-4 hours.
According to a preferred procedure, a Hewlett Packard 8453 spectrophotometer is used to obtain a blank, reference spectrum of the 50 mM solution of sodium phosphate buffer prepared in Example 6. Using the same instrument, a spectrum for the 25 μM Congo Red solution is measured over a suitable range, e.g., from about 300 nm to about 650 nm. […] If this difference is greater than an empirically determined quality control specification, the sample can be deemed to fail. […]

Where [4] appears, read: precipitated with 18% by volume acetonitrile.

For “Acetyl-WQEWEQKITALLEQAQIQQE KNEYELQKLDKWASLWEWF-NH2 (Ac-WQEWEQKITALLEQAQIQQEKNEYELQKLDKWASLWEWF-NH2) [Sample T-1249, ID NO; 20]”, in data set [1] (precipitated with 14% by volume acetonitrile), the dissolution behaviour result was “dissolved to some degree at a pH of 6.95 but not completely”. In data set [1] (setting [4]), the dissolution time came out at 1 h, the “final pH at dissolution” value was 6.69 and the “turbidity appearance at dissolution” value was “very faint turbidity”. Moreover, the “dissolution pH” value in data set [1] (precipitated with 20 to 22 volume percent acetonitrile) is on record as “around 9”. Also, the dissolution behaviour result in data set [1] (precipitated with no co-solvent, after 14 to 18 hours, pH of 8) is recorded as “dissolved very slowly with high turbidity”. Besides, in data set [2], the “molar mass by the MALS method” value stood at 6500. The “colour change of Congo Red solution” value in data set [3] is “deep salmon-pink color”.
